From article PMC11840598

Biological target: TM expressed on COS-7 cells from pTM-GFP recombinant plasmids (UniProt P07204)
Experiment: atomic force microscopy

Chain of UniProt P07204 (P07204 19-575): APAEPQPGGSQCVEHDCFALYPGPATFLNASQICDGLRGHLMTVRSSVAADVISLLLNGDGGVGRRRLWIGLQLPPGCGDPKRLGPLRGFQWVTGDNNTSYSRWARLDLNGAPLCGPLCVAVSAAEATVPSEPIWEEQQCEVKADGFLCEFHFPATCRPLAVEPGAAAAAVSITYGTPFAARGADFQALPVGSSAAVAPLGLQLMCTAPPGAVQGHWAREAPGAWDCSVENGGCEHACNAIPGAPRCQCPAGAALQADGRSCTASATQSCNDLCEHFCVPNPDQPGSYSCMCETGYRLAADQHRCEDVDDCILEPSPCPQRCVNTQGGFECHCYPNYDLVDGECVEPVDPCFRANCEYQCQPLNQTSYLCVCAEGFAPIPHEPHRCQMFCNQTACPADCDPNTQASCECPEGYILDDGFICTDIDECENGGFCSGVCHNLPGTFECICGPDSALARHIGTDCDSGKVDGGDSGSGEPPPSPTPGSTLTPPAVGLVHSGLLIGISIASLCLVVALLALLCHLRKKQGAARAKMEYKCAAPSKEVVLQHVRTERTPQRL

- interactional force (single-molecule rupture force), with atorvastatin: 84 pN
- interactional force (single-molecule rupture force), with pitavastatin: 87 pN
- interactional force (single-molecule rupture force), with rosuvastatin: 74.4 pN
Substance: human alpha thrombin (from UniProt P00734 364-622) (enzyme)
